# Experimental data: the nanobody polyreactivity screen of Harvey et al. (2022)
# Assay: yeast display, Sf9 membrane polyspecificity reagent, FACS + sequencing; frameworks hold sequencing errors
# How it was run: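 Nanobodies from a synthetic yeast display library (Saccharomyces cerevisiae BJ5465), induced 36–48 hours with galactose, were stained 1 hour at 4 °C with 10% biotinylated, detergent-solubilized Sf9 membrane reagent, enriched on streptavidin microbeads, then FACS-sorted. Anti-HA (expression) and streptavidin (reagent binding) fluorescence set low and high (top ~1%) gates. Polyreactivity labels come from the gate of origin. Genes were colony-PCR amplified, MiSeq 2 × 250 sequenced and filtered by CDR length.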
row,Sequence,polyreactivity (PSR sort gate)
1,QVQLVESGGGLVQAGGSLRLSCAASGFIFQYYAMGWYRQAPGKERELVAVIRSGGSTYYADSVKGRFTISRDNAKNTVYLQMNSLKPEDTAVYYCNARRTYLDRYNYWGQGTQVTVSS,high polyreactivity
2,QVQLVESGGGLVQAGGSLRLSCAASGRIFYYYAMGWYRQAPGKERELVAAINRSGGSTYYADSVKGRFTISRDNAKNTVYLQKNSLKPEDTAVYYCASYDYWGQGSQVTVSS,high polyreactivity
3,QVQLVESGGGLVQAGGSLRISCAASGSTFGPYAMGWYRPAPGKERELVAAITKSGGRTYYADSVKGRFTISRDNAKNTVYLQMNSLKPEDTAVYYCAAYGSVGLEYWGQGTQVTVSS,high polyreactivity
4,QVQLVESGGGLVQAGGSLRLSCAASGSTFGRYAMGWYRQAPGKERELVAAISRGGSTYYADSVKGRFTISRDNAKNTVYLQMNSLKPEDTAVYYCNKGDSKEYDVYYWGQGTQVTVSS,low polyreactivity
5,QLQLVESGGGLVQAGGSLRLSCAASGNTFYQYAMGWYRQAPGKERELVAGIRYNGGSTYYADSVKGRFTISRDNAKNTVDLQMNSLKPEDTAVYYCATKGYTGYAYRYGYWGQGTQVTVSS,high polyreactivity
6,QVHLVESGGGLVQAGGSLRISCAASGSTFHGYAMGWYRQEPGKEMELVAAITSGDSTNYADSVKGRFTISRDNAKNTVYLQMNSLKPEDTAVYFCNAEGDSLLTGYWGYPPYWDTYDNWGQGTQVTVSS,low polyreactivity
7,QVQLVESGGGLVQAGGSLRISCAASGNIFYRNGMGWYRQAPGKEREFVAAISRRGGSTYYADSVKGRFTISRDNAKNTVYLQMNSLKTEDTAVYYCATRYWPTNKGEYWGQGTQLTVSS,high polyreactivity
8,QDQLVDSGGGLVQAGGSLRLSCAASGRIFTINAMGWYRQAPGKERELVAAITYSGGSTYADSVKGRFTISRDNAKNTVYLQMNSLKPEDTAVYYCNAKLTWSRRYVRYNYWGQGTQVTVSS,high polyreactivity
9,QVQLVESGVGLVQAGGSLRLRCAASGSIFEGNGMGWYRQAPGKERELVASITRSGGSTYDADSVKGRFTISRDNAQNTVYVQMNSLKPEDTAVYYCAAKGTTYGLTIRWYPYLHGYNYWGQGTQVTVSS,low polyreactivity
10,QVQLVESGGGLVQAGGSLRLSCAASGFTFGPNTMGWYRQAPGKERELVAAISARGGRTYYADSVKGRFTISRDNAKNTVYLQMNSLKPEDTAVYYCAAPGYVRTGVTYGGYYWGQGTQVTVSS,high polyreactivity
11,QVQLVESGGGLVQAGGSLRLICAASGSILGTYAMGWYRQAPGKERELVAAITLSTDGTYYADSVKGRFTISRDNAKNTVYLQMNCLKPEDTAVYYFAAPWNWRWVTQWGYYVRADYYWGQGSQVTVSS,low polyreactivity
12,QVQLVESGGGLVQAGGSLRLSCAASGFIFTLYAMGWYRQAPGKERELVADISFNSGNTYYADSVKGRFTISRDNAKNTVYLQMNSLIPEDTAVYYCAVDLYFVGDVYEGYLGGDYLGQGTQVTVSS,low polyreactivity
13,QVQLVESGGGLVQAGGSLRLSCAGSGSTFRSNALGWYRQEPGKVRELVAAISLRGGSTDYADSVKGRFTISRDNAKNTVYLQMNSLTPEDTAVYFCAKVSKRVGFPTAMNYWGHGTQVTVSS,high polyreactivity
14,QVQLVESGGGLDQAGGSLRLSCAASGSIFDYYTMGWYRQAPGKERELVASITQSGGSTYYADSVKGRFTISRDNAKNTVYLQMTSLKPEDTAVYYCAADGRYVRIRGDYWGQGTQVTVSS,low polyreactivity
15,QVQLVESGGGLVQAGGSLRLSCAASGSIFSSYVMGWYRQAPGKERELVAAITSRGGSTYCADSVKGRFTISRDNAKNTVYFQMKSLKPEDTAVYYCAKGGTTWYWSGYRSIYFRYDYWGQGTQVTVSS,high polyreactivity
16,QVQLVESGGGLVQAGGSLRLSCAASGIILHGYAMGWYRQAAGKEREFVATITVSGSSTYYADSVKGRFTISRDNAKNTVYLQMNSLKPEDTAVYYCAARSWVIVYGLQYDYWGQGTQETVSS,high polyreactivity
17,QVQLVESGGGLVQAGGSLRLSCAASGSILEIYAMGWYRQAPGKEREFVASISWDVSSTYYADSVKGRFTISRDNAKNTVYLQMNSLKPEDTAVYYCATSLVWGLYDWYYDLSAAFDYWGQGTQVTVSS,low polyreactivity
18,QVQLVESGGGLVQAGGSLRLICAASGLTFTPNAMGWYRQAPWKEREFVAAITWRGGRTYYADSVKGRFTISRDNAKNTVYLQMNSLKPEDTAVYYCAVTYRPTDQLDYWGQGTQVTVSS,high polyreactivity
19,QVQLVESGGGLVQAGGSLRLSCAASGSNFRYYAMGWYRQAPGKERELFAAISSNGGSTSYADSVKGRFTISRDNAKNTVYLQMNSLKPEDTAVYYCAATRRWYPTKLYGYWGQGTQVTVSS,high polyreactivity
20,QVQLVESGGGLVQAGGSLRLSCAASGITFFRNAMGWYRQAPGKERELVAAISRGGGSTYYADSVKGRFTISRDNAKNTVYLQMNSLKPEDTAVYYCAEYKYGTGVKMDYWGQGTQVTVSS,high polyreactivity
21,KVQLVESGGGLVQAGGSLRLSCAASGRTFGDYAMGWSRQAPGKEREWVARISWDGGSTYYADSVKGRFTISRDNAKNTVYLQMNSLKPEDTAGYYCYSKSDYWGQGTQVTVSS,low polyreactivity
22,QVQLVESGGGLVQAGGSLRLSCAASGSIFAWNAMGWYRQAPGKERELVATIRSTGGSTYYADSVKGRFTISRDNAKNTVYLQMNSLKPEYTAVYYCAADYQAGDKLYDYWGQGTQVTVSS,low polyreactivity
